Experimental data published in US20020052473.

Target: T1, full-length pro-IL-1H4
T1 chain: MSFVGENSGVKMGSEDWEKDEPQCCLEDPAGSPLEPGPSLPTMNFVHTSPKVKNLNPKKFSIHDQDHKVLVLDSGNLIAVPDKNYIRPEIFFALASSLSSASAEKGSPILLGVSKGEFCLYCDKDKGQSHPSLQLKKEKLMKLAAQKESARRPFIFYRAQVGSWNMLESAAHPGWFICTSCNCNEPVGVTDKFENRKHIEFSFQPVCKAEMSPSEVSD

B1: caspase 1 (protein)
chain: NPAMPTSSGSEGNVKLCSLEEAQRIWKQKSAEIYPIMDKSSRTRLALIICNEEFDSIPRRTGAEVDITGMTMLLQNLGYSVDVKKNLTASDMTTELEAFAHRPEHKTSDSTFLVFMSHGIREGICGKKHSEQVPDILQLNAIFNMLNTKNCPSLKDKPKVIIIQACRGDSPGVVWFKDSVGVSGNLSLPTTEEFEDDAIKKAHIEKDFIAFCSSTPDNVSWRHPTMGSVFIGRLIEHMQEYACSCDVEEIFRKVRFSFEQPDGRAQMPTTERVTLTRCFYLFPGH
- cleavage of pro-IL-1H4 to mature IL-1H4 (SDS polyacrylamide gel): Caspase 1 at a ratio of 1:50 to 1:5 (caspase:IL-1H4, weight/weight) completely cleaved pro-IL-1H4 to release the mature IL-1H4

B2: caspase 4 (protein)
chain: QISPNKKAHPNMEAGPPESGESTDALKLCPHEEFLRLCKERAEEIYPIKERNNRTRLALIICNTEFDHLPPRNGADFDITGMKELLEGLDYSVDVEENLTARDMESALRAFATRPEHKSSDSTFLVLMSHGILEGICGTVHDEKKPDVLLYDTIFQIFNNRNCLSLKDKPKVIIVQACRGANRGELWVRDSPASLEVASSQSSENLEEDAVYKTHVEKDFIAFCSSTPHNVSWRDSTMGSIFITQLITCFQKYSWCCHLEEVFRKVQQSFETPRAKAQMPTIERLSMTRYFYLFPGN
- cleavage of pro-IL-1H4: caspase 4 also cleaved pro-IL-1H4, although not as efficiently as caspase 1
